Results reported in patent US20160039934A1 (AFFIRMED, published 2016).

How the values were obtained:
EGFRvIII = EGFRvIII (UniProt P00533 25-1210); assay: cell-based or functional assay
cynomolgus CD3 = biological target: T1, cynomolgus CD3 (cynomolgus, UniProt Q95LI5 22-198); assay: flow cytometry on cynomolgus CD3+ HSC-F cells, anti-His mAb and FITC goat anti-mouse IgG, non-linear regression of MFI
T1 construct: whole, on cells; CD3 is a multi-chain complex; also called CD3 on cynomolgus CD3+ HSC-F cells; cynomolgus CD3-expressing cell line (HSC-F)
Text: (§1) Cell-surface bound tandem diabody was detected by anti-His mAb followed by FITC-conjugated goat anti-mouse IgG. To calculate KD, mean fluorescence intensities determined by flow cytometry were modeled as sigmoidal dose-response by non-linear regression.
(§2) FIGS. 3A and 3B present binding of titrated tandem diabodies TandAb D, containing var_y, and TandAb E (SEQ ID NO:12), containing var_z, to a CD3⁺ human T cell line (Jurkat) and a CD3⁺ cynomolgus cell line (HSC-F), as determined by flow cytometric analysis.

human CD3 [1] = biological target: T2, human CD3 (human, UniProt P07766 23-207); assay: flow cytometry on human CD3+ Jurkat cells, anti-His mAb and FITC goat anti-mouse IgG, non-linear regression of MFI
T2 construct: whole, on cells; CD3 is a multi-chain complex; also called CD3 on human CD3+ Jurkat cells; CD3+ human T cell line (Jurkat)
Text: as §1, §2

human CD3 [2] = biological target: T2, human CD3; assay: flow cytometry on Jurkat cells; reference TandAb E
Text: as §1, §2

human CD3 [3] = biological target: T2, human CD3; assay: flow cytometry on Jurkat cells, non-linear regression (rounded restatement of the FIG. 3 value)
Text: as §1, §2

T2 sequence (P07766 23-207): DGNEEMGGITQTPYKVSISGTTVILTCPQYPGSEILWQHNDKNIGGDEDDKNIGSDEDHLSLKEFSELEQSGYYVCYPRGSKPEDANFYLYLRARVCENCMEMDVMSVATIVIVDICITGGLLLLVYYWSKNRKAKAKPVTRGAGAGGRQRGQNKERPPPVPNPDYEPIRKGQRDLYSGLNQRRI
T1 sequence (Q95LI5 22-198): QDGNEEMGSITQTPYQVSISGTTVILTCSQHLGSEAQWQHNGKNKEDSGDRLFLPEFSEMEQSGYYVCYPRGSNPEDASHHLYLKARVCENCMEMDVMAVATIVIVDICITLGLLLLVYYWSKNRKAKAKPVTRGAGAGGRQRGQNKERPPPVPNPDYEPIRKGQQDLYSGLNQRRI

Kd (cynomolgus CD3) [nM] | Kd (human CD3 [1]) [nM] | fold higher affinity than TandAb E (human CD3 [2]) [fold] | Kd (human CD3 [3]) [nM] | Binder | EC50, 4 h calcein release cytotoxicity assay (EGFRvIII) [nM]
– | – | – | – | TandAb G (SEQ ID NO:14) (bispecific antibody) DIQMTQSPSSLSASVGDRVTITCRSSTGAVTTSNYANWVQQKPGKAPKGLIGGTNKRAPGVPSRFSGSLIGDKATLTISSLQPEDFATYYCALWYSNLWVFGQGTKVEIKGGSGGSEVQLVQSGAEVKKPGESLKISCKGSGYSFTSYWIGWVRQMPGKGLEWMGIIYPGDSDTRYSPSFQGQVTISADKSISTAYLQWSSLKASDTAMYYCARLGSSWTNDAFDIWGQGTMVTVSSGGSGGSSYELTQPPSVSVSPGQTARITCSGDALPKQYAYWYQQKPGQAPVLVIYKDSERPSGIPERFSGSSSGTTVTLTISGVQAEDEADYYCQSADSSGTPLIVFGTGTKLTVLGGSGGSEVQLVESGGGLVQPGGSLRLSCAASGFTFSTYAMNWVRQAPGKGLEWVGRIRSKYNNYATYYADSVKDRFTISRDDSKNSLYLQMNSLKTEDTAVYYCARHGNFGNSYVSWFAYWGQGTLVTVSSAAAGSHHHHHH | 0.129
3.4 | 1.82 | > 10 | 1.8 | TandAb D (var_y) (SEQ ID NO:11) (bispecific antibody, Homodimeric tandem diabody; Detected by anti-His mAb) DIQMTQSPSSLSASVGDRVTITCRSSTGAVTTSNYANWVQQKPGKAPKALIGGTNKRAPGVPSRFSGSLIGDKATLTISSLQPEDFATYYCALWYSNLWVFGQGTKVEIKGGSGGSEVQLVQSGAEVKKPGESLKISCKGSGYSFTSYWIGWVRQMPGKGLEWMGIIYPGDSDTRYSPSFQGQVTISADKSISTAYLQWSSLKASDTAMYYCARLGSSWTNDAFDIWGQGTMVTVSSGGSGGSSYELTQPPSVSVSPGQTARITCSGDALPKQYAYWYQQKPGQAPVLVIYKDSERPSGIPERFSGSSSGTTVTLTISGVQAEDEADYYCQSADSSGTPLIVFGTGTKLTVLGGSGGSEVQLVESGGGLVQPGGSLRLSCAASGFTFSTYAMNWVRQAPGKGLEWVGRIRSKYNNYATYYADSVKDRFTISRDDSKNSLYLQMNSLKTEDTAVYYCARHGNFGNSYVSYFAYWGQGTLVTVSSAAAGSHHHHHH | 0.122
24.3 | 27.7 | – | 27.7 | TandAb E (var_z) (SEQ ID NO:12) (bispecific antibody, Homodimeric tandem diabody; Detected by anti-His mAb) DIQMTQSPSSLSASVGDRVTITCRSSTGAVTTSNYANWVQQKPGKAPKGLIGGTNKRAPGVPSRFSGSLIGDKATLTISSLQPEDFATYYCALWYSNLWVFGQGTKVEIKGGSGGSEVQLVQSGAEVKKPGESLKISCKGSGYSFTSYWIGWVRQMPGKGLEWMGIIYPGDSDTRYSPSFQGQVTISADKSISTAYLQWSSLKASDTAMYYCARLGSSWTNDAFDIWGQGTMVTVSSGGSGGSSYELTQPPSVSVSPGQTARITCSGDALPKQYAYWYQQKPGQAPVLVIYKDSERPSGIPERFSGSSSGTTVTLTISGVQAEDEADYYCQSADSSGTPLIVFGTGTKLTVLGGSGGSEVQLVESGGGLVQPGGSLRLSCAASGFTFSTYAMNWVRQAPGKGLEWVGRIRSKYNNYATYYADSVKDRFTISRDDSKNSLYLQMNSLKTEDTAVYYCARHGNFGNSYVSHFAYWGQGTLVTVSSAAAGSHHHHHH | –
